Reference: article PMC4363203

Target: centromere protein A (CENP-A), histone H3 variant (human (endogenous in HcoEpiC, HeLa and SW480)) (UniProt P49450)
Assay: co-IP; sequential native CENP-A IP of the chromatin left unbound by the CENP-B IP ('ectopic CENP-A'); SW480 cells; quantitative fluorescent western blot, background-corrected, input-adjusted ratio to the CENP-B IP

Sequence of UniProt P49450 (P49450 whole entry, change not shown): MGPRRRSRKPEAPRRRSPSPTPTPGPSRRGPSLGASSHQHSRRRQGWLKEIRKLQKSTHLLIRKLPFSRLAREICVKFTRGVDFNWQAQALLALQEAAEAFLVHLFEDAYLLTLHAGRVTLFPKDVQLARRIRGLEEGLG

| Substance | H3 fold enrichment (Seq. CpA IP/CpB IP) [fold] | ATRX fold enrichment (Seq. CpA IP/CpB IP) [fold] |
| --- | --- | --- |
| canonical histone H3 (from UniProt P68431 1-136) (natural protein) | 2.91 | – |
| ATRX, transcription-coupled histone chaperone (from UniProt P46100 1-2492) (natural protein) | – | 0.81 |
